The target in the test is wildtype human transient receptor potential ankyrin 1 channel subunit (hTRPA1_WT) (human) (UniProt O75762). The test can be described thus: co-IP.

The values below come from PMC8208096.

In the case of “hTRPA1_27A splice variant, HA-tagged (natural protein)”, the normalized fold of enrichment (against HA-tagged WT) was determined as 0.71 fold.

With “hTRPA1_27B splice variant, HA-tagged (natural protein)”, the normalized fold of enrichment (against HA-tagged WT) worked out at 0.62 fold.
